± gives the uncertainty stated by the source.

42 variants from the Human Domainome abundance scans (Beltran et al. 2025) can be followed below.

B1: KAT8 regulatory NSL complex subunit 2, residues 28 to 91; numbered along this chain, Q9H9L4 (parent)
chain: CAFTHRPCSHPRLEGQEFCIKHILEDKNAPFKQCSYISTKNGKRCPNAAPKPEKKDGVSFCAEH

This series covers variants of B1. Kind of series: abundance fitness (aPCA) (normalised: wild type 0, dead -1); higher = more abundant; growth selection in yeast, the domain comes from the species named. To be noted: Homo sapiens.
In the case of CAQTHRPCSHPRLEGQEFCIKHILEDKNAPFKQCSYISTKNGKRCPNAAPKPEKKDGVSFCAEH [F3Q], the abundance fitness was -0.28 ± 0.055.

Take CARTHRPCSHPRLEGQEFCIKHILEDKNAPFKQCSYISTKNGKRCPNAAPKPEKKDGVSFCAEH [F3R]: the abundance fitness is -0.174 ± 0.044. As for CAFTWRPCSHPRLEGQEFCIKHILEDKNAPFKQCSYISTKNGKRCPNAAPKPEKKDGVSFCAEH [H5W], the abundance fitness was -0.193 ± 0.081. The value for CAFTNRPCSHPRLEGQEFCIKHILEDKNAPFKQCSYISTKNGKRCPNAAPKPEKKDGVSFCAEH [H5N] was -0.212 ± 0.12; that for CAFTTRPCSHPRLEGQEFCIKHILEDKNAPFKQCSYISTKNGKRCPNAAPKPEKKDGVSFCAEH [H5T] was 0.034 ± 0.091. CAFTVRPCSHPRLEGQEFCIKHILEDKNAPFKQCSYISTKNGKRCPNAAPKPEKKDGVSFCAEH [H5V]: the abundance fitness is -0.023 ± 0.059. Turning to CAFTLRPCSHPRLEGQEFCIKHILEDKNAPFKQCSYISTKNGKRCPNAAPKPEKKDGVSFCAEH [H5L], the abundance fitness was -0.068 ± 0.054. The figure for CAFTERPCSHPRLEGQEFCIKHILEDKNAPFKQCSYISTKNGKRCPNAAPKPEKKDGVSFCAEH [H5E] is 0.017 ± 0.088; for CAFTQRPCSHPRLEGQEFCIKHILEDKNAPFKQCSYISTKNGKRCPNAAPKPEKKDGVSFCAEH [H5Q] it is 0.011 ± 0.063. The figure for CAFTSRPCSHPRLEGQEFCIKHILEDKNAPFKQCSYISTKNGKRCPNAAPKPEKKDGVSFCAEH [H5S] is -0.144 ± 0.068; for CAFTFRPCSHPRLEGQEFCIKHILEDKNAPFKQCSYISTKNGKRCPNAAPKPEKKDGVSFCAEH [H5F] it is -0.096 ± 0.066; for CAFTMRPCSHPRLEGQEFCIKHILEDKNAPFKQCSYISTKNGKRCPNAAPKPEKKDGVSFCAEH [H5M] it is -0.012 ± 0.081. For the variant CAFTRRPCSHPRLEGQEFCIKHILEDKNAPFKQCSYISTKNGKRCPNAAPKPEKKDGVSFCAEH [H5R], the abundance fitness was -0.01 ± 0.058.

As to CAFTGRPCSHPRLEGQEFCIKHILEDKNAPFKQCSYISTKNGKRCPNAAPKPEKKDGVSFCAEH [H5G], the abundance fitness is -0.017 ± 0.056. On to CAFTIRPCSHPRLEGQEFCIKHILEDKNAPFKQCSYISTKNGKRCPNAAPKPEKKDGVSFCAEH [H5I], for which the abundance fitness is -0.084 ± 0.1. In the case of CAFTARPCSHPRLEGQEFCIKHILEDKNAPFKQCSYISTKNGKRCPNAAPKPEKKDGVSFCAEH [H5A], the abundance fitness is -0.068 ± 0.045.

On to CAFTYRPCSHPRLEGQEFCIKHILEDKNAPFKQCSYISTKNGKRCPNAAPKPEKKDGVSFCAEH [H5Y], for which the abundance fitness is -0.151 ± 0.093.

On to CAFTPRPCSHPRLEGQEFCIKHILEDKNAPFKQCSYISTKNGKRCPNAAPKPEKKDGVSFCAEH [H5P], for which the abundance fitness was -0.146 ± 0.095. Regarding CAFTCRPCSHPRLEGQEFCIKHILEDKNAPFKQCSYISTKNGKRCPNAAPKPEKKDGVSFCAEH [H5C], the abundance fitness was -0.112 ± 0.063. As for CAFTKRPCSHPRLEGQEFCIKHILEDKNAPFKQCSYISTKNGKRCPNAAPKPEKKDGVSFCAEH [H5K], the abundance fitness is -0.083 ± 0.14.

On to CAFTHQPCSHPRLEGQEFCIKHILEDKNAPFKQCSYISTKNGKRCPNAAPKPEKKDGVSFCAEH [R6Q], for which the abundance fitness was -0.072 ± 0.073. With CAFTHAPCSHPRLEGQEFCIKHILEDKNAPFKQCSYISTKNGKRCPNAAPKPEKKDGVSFCAEH [R6A], the abundance fitness was -0.167 ± 0.073.

Consider CAFTHTPCSHPRLEGQEFCIKHILEDKNAPFKQCSYISTKNGKRCPNAAPKPEKKDGVSFCAEH [R6T], for which the abundance fitness is -0.088 ± 0.066. With CAFTHGPCSHPRLEGQEFCIKHILEDKNAPFKQCSYISTKNGKRCPNAAPKPEKKDGVSFCAEH [R6G], the abundance fitness was -0.068 ± 0.055.

With CAFTHFPCSHPRLEGQEFCIKHILEDKNAPFKQCSYISTKNGKRCPNAAPKPEKKDGVSFCAEH [R6F], the abundance fitness was -0.016 ± 0.076. Turning to CAFTHKPCSHPRLEGQEFCIKHILEDKNAPFKQCSYISTKNGKRCPNAAPKPEKKDGVSFCAEH [R6K], the abundance fitness was -0.032 ± 0.11. Consider CAFTHIPCSHPRLEGQEFCIKHILEDKNAPFKQCSYISTKNGKRCPNAAPKPEKKDGVSFCAEH [R6I], for which the abundance fitness is -0.034 ± 0.079. As for CAFTHVPCSHPRLEGQEFCIKHILEDKNAPFKQCSYISTKNGKRCPNAAPKPEKKDGVSFCAEH [R6V], the abundance fitness was -0.081 ± 0.058. Turning to CAFTHPPCSHPRLEGQEFCIKHILEDKNAPFKQCSYISTKNGKRCPNAAPKPEKKDGVSFCAEH [R6P], the abundance fitness was -0.047 ± 0.069.

CAFTHNPCSHPRLEGQEFCIKHILEDKNAPFKQCSYISTKNGKRCPNAAPKPEKKDGVSFCAEH [R6N]: the abundance fitness is -0.133 ± 0.068. Turning to CAFTHCPCSHPRLEGQEFCIKHILEDKNAPFKQCSYISTKNGKRCPNAAPKPEKKDGVSFCAEH [R6C], the abundance fitness is -0.032 ± 0.066. For CAFTHSPCSHPRLEGQEFCIKHILEDKNAPFKQCSYISTKNGKRCPNAAPKPEKKDGVSFCAEH [R6S], the abundance fitness is -0.055 ± 0.057. Take CAFTHYPCSHPRLEGQEFCIKHILEDKNAPFKQCSYISTKNGKRCPNAAPKPEKKDGVSFCAEH [R6Y]: the abundance fitness was -0.06 ± 0.09.

In the case of CAFTHWPCSHPRLEGQEFCIKHILEDKNAPFKQCSYISTKNGKRCPNAAPKPEKKDGVSFCAEH [R6W], the abundance fitness was -0.118 ± 0.064. For the variant CAFTHRPGSHPRLEGQEFCIKHILEDKNAPFKQCSYISTKNGKRCPNAAPKPEKKDGVSFCAEH [C8G], the abundance fitness is -0.742 ± 0.056. For CAFTHRPESHPRLEGQEFCIKHILEDKNAPFKQCSYISTKNGKRCPNAAPKPEKKDGVSFCAEH [C8E], the abundance fitness is -0.711 ± 0.054. In the case of CAFTHRPFSHPRLEGQEFCIKHILEDKNAPFKQCSYISTKNGKRCPNAAPKPEKKDGVSFCAEH [C8F], the abundance fitness was -1.45 ± 0.15. For CAFTHRPASHPRLEGQEFCIKHILEDKNAPFKQCSYISTKNGKRCPNAAPKPEKKDGVSFCAEH [C8A], the abundance fitness was -0.883 ± 0.076.

Turning to CAFTHRPHSHPRLEGQEFCIKHILEDKNAPFKQCSYISTKNGKRCPNAAPKPEKKDGVSFCAEH [C8H], the abundance fitness was -0.854 ± 0.085. As for CAFTHRPKSHPRLEGQEFCIKHILEDKNAPFKQCSYISTKNGKRCPNAAPKPEKKDGVSFCAEH [C8K], the abundance fitness was -0.664 ± 0.079. On to CAFTHRPISHPRLEGQEFCIKHILEDKNAPFKQCSYISTKNGKRCPNAAPKPEKKDGVSFCAEH [C8I], for which the abundance fitness is -0.847 ± 0.09.

On to CAFTHRPDSHPRLEGQEFCIKHILEDKNAPFKQCSYISTKNGKRCPNAAPKPEKKDGVSFCAEH [C8D], for which the abundance fitness was -0.646 ± 0.085.
